The values that follow come from a protein production outcome set (Wang et al. 2014).

The data set is described as follows: label from the status in PepcDB records.
Consider “MHPSLKYMRKDRLPHIFCSGCGNGIVLNCFTNALDKLALKNEDYIAISGIGCSSRVPGYLFCDSLHTTHGRPIAFALGTKVIQNDKKVVVFTGDGDLSAIGGNHFIHGCRRNIDITVICINNNIYGMTGGQCSPTTPHEKKATTAPYGNPENPLDLCELAKAAGATYVARWTTANPIQLANSIKKGMDKKGFSFIEVVSQCPTYYGRFNVSRKPSEMMKNLKESAITVRKAESMEKEELLNKIVVGEFLNIEKPEYVEQLKKLQE”, for which the protein production result is “failed”.
For “MLEGEFLSVAELKDLTLSLASKFLNNLLASKLLVSKQLFIDRKKELGLLEERLKSGKAQFIVIYGRRRVGKTALILEFLRRHGGLYLLARETSEIENLERFSLRLAEYFNDSFLKKNPLRSLDAFFEYLSTKAEKPFIIAIDEFPYLVKGNKALPSILQEYWEMKLSKKKIFLIVSGSSVSMTERLLGYKSPLYGRRTAQLKLKPLDFFNAREFLPKYSLEDFVRVYGILGGTPAYLLEFSDEKSLEENLKSYFRVDSLLYGDALFILREELDEPRNYFAIMEAIARGNTTLGEIVNETGLERATVGKYLSVLIDLDLVRREVPITASRKSRKGRYYIADNYFAFWFRYVYPNADLIESGNGELLVDTVMDDIDHYTGEVFEGVAKEFLLRLNKSERLPFRFSRVGRWWYKNEEIDLVALNEREKKVLFIEVKWKDLSKREARGILKDLKRKAKLVGLDEWGKHYGLVAKSVRGKDEIKEEGWLAWDLEDIHRMAFLEHHHHHH” the value was “failed”; for “MVPSTFSRLKAARCLPVVLAALIFVGCGTHTPDQSTAYMQGTAQADSAFYLQQMQQSSDDTRINWQLLAIRALVKEGKTGQAVELFNQLPQELNDSQRREKTLLAVEIKLAQKDFAGAQNLLAKITPADLEQNQQARYWQAKIDASQGRPSIDLLRALIAQEPLLGAKEKQQNIDATWQALSSMTQEQANTLVINADENILQGWLDLQRVWFDNRNDPDMMKAGIADWQKRYPNNPGAKMLPTQLVNVKAFKPASTNKIALLLPLNGQAAVFGRTIQQGFEAAKNIGTQPVAAQVAAAPAADVAEQPQPQTADGVASPAQASVSDLTGDQPAAQPVPVSAPATSTAAVSAPANPSAELKIYDTSSQPLSQILSQVQQDGASIVVGPLLKNNVEELLKSNTPLNVLALNQPENIENRVNICYFALSPEDEARDAARHIRDQGKQAPLVLIPRSSLGDRVANAFAQEWQKLGGGTVLQQKFGSTSELRAGVNGGSGIALTGTPITPRATTDSGMTTNNPTLQTTPTDDQFTNNGGRVDAVYIVATPGEIAFIKPMIAMRNGSQSGATLYASSRSAQGTAGPDFRLEMEGLQYSEIPMLAGGNLPLMQQALSAVNNDYSLARMYAMGVDAWSLANHFSQMRQVQGFEINGNTGSLTANPDCVINRKLSWLQYQQGQVVPAS”, “not failed”.
For “MNRNLLYMILRLIFVIVATVAGFYVLLYMSGLIYPFIIAFAFAYLINPVVNFLNQKLQFPRALAVLVSLILVFGAIVGLVTYLVTEAISATTYLLQLVTVKFPDIVTFAQQFALNHIMPLYDDLISKFNHLGEPQRYTITQNIQNLGTEATTQMKELLTAIISGLTNFISALPTTLTVLVFILLATFFISYDWHRLAQKARKLLPNRVHGYGKTIFVDLRKALFGFVKAQLTLVSMTTVIVLIGLLILRVPYAITIAIITGVVDLLPYLGTGAVFVPWVIYVFFTGDTAFAIGLLILYIVVIVQRQIMEPKVLSSNIGLDPLATLVALFVGFKLFGFLGLIIGPVTLVLLNTLHKANVFHDLWKYIKGSPSK” the value was “failed”.
The same measure for “MLNPSLDIISLMAYLTSSSLVGLKLLNFSINLFISSSFLTFLKSLKCSLILPISMPANSGILFTAVSFMLARSLAMSSFGVFSSIINLFTTIHLPYLAVKLI”: “failed”; for “MCGSERFQFRSGAKPLIRGRPLDSDMESLHPRVRLLWVLSTVIQASVLGVIAYLVDRFAVSLPQTVVVGGWVVLVLLGVAHAIAAHRIWRFDLQDDALFLLRGVVTRTDTSVPYVRVQHVDTTRGPVERAIGLASVVVYTAGTRGADITIPGLRPERATELREQLRDLANESEATDAV”: “failed”.
